Biological target: IL-6R (UniProt P08887)
Assay: cell-based or functional assay

Sequence of IL-6R (P08887 20-468 limits assumed): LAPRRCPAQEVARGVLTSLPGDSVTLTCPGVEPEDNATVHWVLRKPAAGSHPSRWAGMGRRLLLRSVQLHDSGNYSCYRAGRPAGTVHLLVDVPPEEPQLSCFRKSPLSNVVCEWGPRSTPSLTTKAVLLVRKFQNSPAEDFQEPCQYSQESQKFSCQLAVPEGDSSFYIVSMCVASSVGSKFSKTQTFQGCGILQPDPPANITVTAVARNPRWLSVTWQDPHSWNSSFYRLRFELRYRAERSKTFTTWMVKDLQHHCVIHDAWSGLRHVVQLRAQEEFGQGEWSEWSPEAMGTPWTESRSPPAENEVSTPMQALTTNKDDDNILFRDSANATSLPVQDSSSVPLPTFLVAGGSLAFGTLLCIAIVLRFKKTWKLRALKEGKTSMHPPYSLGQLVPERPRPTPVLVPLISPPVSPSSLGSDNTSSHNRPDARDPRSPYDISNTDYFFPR

## Tocilizumab (antibody)
  Relative IL-6 Inhibition (%) of IL-6-dependent U266B1 cell proliferation, Tocilizumab at 1 µg/mL (6.7 × 10^-9 M): 15.1%
  Relative IL-6 Inhibition (%) of IL-6-dependent U266B1 cell proliferation, Tocilizumab at 10 µg/mL (6.7 × 10^-8 M): 60.7%
  Relative IL-6 Inhibition (%) of IL-6-dependent U266B1 cell proliferation, Tocilizumab at 100 µg/mL (6.7 × 10^-7 M): 57%
